We go through 10 molecules from patent publication US20240174744A1 (SCIRHOM, published 2024).

In test [1] the target is T1, hiR1-FL-WT-T7 (human iRhom1 full length wild type C-terminally tagged with 3 consecutive copies of the T7 … (human, UniProt Q96CC6 1-855)).
T1 construct: also called human iRhom1 variant expressed by MEF-DKO-hiR1-FL-WT-T7 cells
T1 sequence: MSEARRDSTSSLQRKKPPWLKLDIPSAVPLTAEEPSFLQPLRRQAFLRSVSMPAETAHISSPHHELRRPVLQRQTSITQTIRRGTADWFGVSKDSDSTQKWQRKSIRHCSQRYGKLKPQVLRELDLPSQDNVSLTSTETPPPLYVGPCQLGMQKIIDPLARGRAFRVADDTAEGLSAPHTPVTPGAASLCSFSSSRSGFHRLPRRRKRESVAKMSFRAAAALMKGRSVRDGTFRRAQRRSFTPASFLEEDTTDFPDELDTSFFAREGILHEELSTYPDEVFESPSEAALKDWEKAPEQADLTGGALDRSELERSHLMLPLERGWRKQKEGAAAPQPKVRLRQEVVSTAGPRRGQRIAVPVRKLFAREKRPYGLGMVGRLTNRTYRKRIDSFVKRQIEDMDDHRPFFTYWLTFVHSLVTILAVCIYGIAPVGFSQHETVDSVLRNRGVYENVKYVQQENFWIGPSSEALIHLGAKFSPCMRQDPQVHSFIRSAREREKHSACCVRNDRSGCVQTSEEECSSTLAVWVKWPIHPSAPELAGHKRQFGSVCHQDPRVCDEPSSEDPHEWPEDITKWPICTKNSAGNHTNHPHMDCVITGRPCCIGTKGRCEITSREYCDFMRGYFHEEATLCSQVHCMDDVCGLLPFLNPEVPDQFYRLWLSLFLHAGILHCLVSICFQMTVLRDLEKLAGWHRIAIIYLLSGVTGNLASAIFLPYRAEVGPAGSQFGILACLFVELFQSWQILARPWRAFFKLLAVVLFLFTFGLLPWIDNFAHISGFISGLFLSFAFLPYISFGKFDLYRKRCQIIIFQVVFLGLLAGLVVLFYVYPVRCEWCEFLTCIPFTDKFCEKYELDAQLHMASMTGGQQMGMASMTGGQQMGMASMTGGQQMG
Description: FACS on cells of the row human iR1 wild type, vs human iR2 wild type = 100%.

For test [2], the target named is T2, human iRhom2 (inactive rhomboid protein 2, isoform 1), endogenously expressed on human cells (human, UniProt Q6PJF5 1-856).
T2 construct: also called RHBDF2; NP_078875.4
T2 sequence: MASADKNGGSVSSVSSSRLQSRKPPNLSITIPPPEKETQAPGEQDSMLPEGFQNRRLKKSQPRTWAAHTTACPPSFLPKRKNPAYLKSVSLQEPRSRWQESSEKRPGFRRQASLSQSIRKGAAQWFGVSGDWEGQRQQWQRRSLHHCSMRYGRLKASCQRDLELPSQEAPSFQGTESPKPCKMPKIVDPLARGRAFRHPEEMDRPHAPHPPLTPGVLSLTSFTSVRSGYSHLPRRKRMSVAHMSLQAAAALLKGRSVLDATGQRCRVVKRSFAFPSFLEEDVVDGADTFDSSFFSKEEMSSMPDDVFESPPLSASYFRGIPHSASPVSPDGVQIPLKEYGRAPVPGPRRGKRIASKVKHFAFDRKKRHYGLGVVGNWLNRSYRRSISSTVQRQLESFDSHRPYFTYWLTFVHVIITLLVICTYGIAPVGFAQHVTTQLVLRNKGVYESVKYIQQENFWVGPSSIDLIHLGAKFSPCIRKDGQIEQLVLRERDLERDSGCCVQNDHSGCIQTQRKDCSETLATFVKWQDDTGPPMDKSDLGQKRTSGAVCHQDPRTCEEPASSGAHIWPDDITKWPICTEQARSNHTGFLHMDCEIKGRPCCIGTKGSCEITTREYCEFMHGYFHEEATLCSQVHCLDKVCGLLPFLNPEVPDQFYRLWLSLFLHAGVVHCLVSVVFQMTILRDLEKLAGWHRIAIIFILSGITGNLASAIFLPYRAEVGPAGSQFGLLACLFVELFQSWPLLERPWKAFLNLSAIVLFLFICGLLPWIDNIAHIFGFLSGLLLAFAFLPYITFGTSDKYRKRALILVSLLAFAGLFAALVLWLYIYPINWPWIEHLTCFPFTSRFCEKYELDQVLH
The experiment in a line: indirect FACS scatchard analysis on THP-1 cells (endogenous iRhom2). The method, then: In brief, human THP-1 cells (American Type Culture Collection, USA) were harvested with 10 mM EDTA in PBS, washed and resuspended in FACS buffer (PBS, 3% FBS, 0.05% sodium azide), and seeded in Nunc U-bottom 96-well plates (Thermo Fisher Scientific, USA) at approximately 3×10⁵ cells per well. In order to pellet cells and remove supernatants, the plates were centrifuged at 1,500 rpm and 4° C. for 3 minutes. For primary staining, cells were resuspended in 100 μl per well of either FACS buffer alone (controls) or serial two-fold dilutions (in total 22 concentrations) of the purified antibodies 3, 5, 16, 22, 34, 42, 43, 44, 48, and 50 of the present disclosure in FACS buffer starting at 40 μg/ml and incubated on ice for 1 hour. Afterwards, plates were centrifuged at 1,500 rpm and 4° C. for 3 minutes and washed twice with 200 μl per well of FACS buffer. For secondary staining, cells were spun down and resuspended in 100 μl per well of PE-conjugated goat anti-mouse IgG F(ab′)2 detection fragment (Dianova, Germany) diluted 1:100 in FACS buffer. Protected from light, the cell suspensions were incubated on ice for 1 hour. Plates were then centrifuged at 1,500 rpm and 4° C. for 3 minutes and washed three times with 200 μl per well of FACS buffer. Finally, cells were resuspended in 150 μl per well of FACS buffer and analyzed using a BD Accuri™ C6 Plus flow cytometer (Becton Dickinson, Germany). Applying Prism8 software (GraphPad Sowtware, USA), the respective KD value for each of the antibodies of the present disclosure were calculated.

Test [3] deals with T1, hiR1-FL-WT-T7 (human iRhom1 full length …). The experiment in a line: FACS on cells of the row human iR1 wild type.

B1: antibody 16 (antibody, V domains shown)
VH: QVTLKESGPGILQPSQTLSLTCSFSGFSLSTFALGVGWIRQPSGRGLEWLAHIWWDDDKYYNPALKSRLTISKDTSKNHVFLKIANVDTADTATYYCARITTYYYGMDYWGQGTSVTVSS
VL: DIVLSQSPATLSVTPGDSVSLFCRASQSIGNHLHWYQQESHASPRLLIKYASQSISGIPSRFSGSGSGTDFTLSINSVETEDFGMYFCQQSYNWPLTFGAGTKLELK
notes: Mouse IgG, kappa light chain; also called clone #16; m16
The term Kd denotes the equilibrium constant for the complex coming apart. Higher therefore signals lower affinity. On to B1, for which the “grade of loss of binding vs wild type” value in test [1] was 3 grade (3 => 95% loss of binding vs wild type). Besides, the Kd in test [2] is 0.34 nM. Moreover, in test [3], the binding result was “no binding (tested: 3 µg/ml)”.

B2: antibody 3 (antibody, V domains shown)
VH: QVTLKESGPGILQPSQTLSLTCSFSGFSLTTFAMGIGWVRQPSGKGLEWLAHIWWDGEKYNNPVLKSRLTISKDTSKNQVFLRIANVDTPDTATYYCARISSIYYIIDNWGQGTSVTVSS
VL: DIVLTQSPATLSVTPGHSVSLSCRASQSISNNLHWYQKKSHESPRLLIKYVSQSISGIPSRFSGSGSGTDFTLSINSVETEDFGMYFCQQSYNWPLTFGAGTKLELK
notes: Mouse IgG, kappa light chain; also called clone #3; purified antibody 3
On to B2, for which the “grade of loss of binding vs wild type” value in test [1] was 3 grade (3 => 95% loss of binding vs wild type). This molecule also yielded a dissociation constant (Kd) in test [2] of 2.97 nM.

B3: antibody 34 (antibody, V domains shown)
VH: QVTLKESGPGILQPSQTLSLTCSFSGFSLSTFSLGVGWIRQSSGKGLEWLAHIWWDDEKYYNPALKSRLTISKDTSKNQVFLKIANVDAADTATYYCARAYYSKSYYALDYWGQGTSVTVSS
VL: DIQMTQSPSSLSASLGERVSLTCRASQEISGYLSWLQQKPDGTIKRLIYAASTLDSGVPKRFSGSRSGSDYSLAISSLESEDFADYYCLQYANFPFTFGSGTKLEIK
notes: Mouse IgG, kappa light chain; also called clone #34; m34
In the case of B3, in test [1], the “grade of loss of binding vs wild type” value was 3 grade (3 => 95% loss of binding vs wild type). Also, the dissociation constant Kd in test [2] stood at 1.94 nM. Moreover, the binding result in test [3] is on record as “no binding (tested: 3 µg/ml)”.

B4: antibody 48 (antibody, V domains shown)
VH: QVQLQQSGTELVRPGTSVKVSCKASGYAFTNYLIEWVKQRPGQGLEWIGVINPGSGFTKYNEKFKGKATLTADKSSSTVYMHLSSLTSEDSAVYFCARGLYRAMDYWGQGTSVTVSS
VL: DIQMTQSPASQSASLGESVTITCLASQTIATWLAWYQQKPGKSPQLLIYGATTLADGVPSRFSGGGSGTKFSFKISSLQAEDFVSYYCQQLYSTPYTFGGGTKLEIK
notes: Mouse IgG, kappa light chain; also called clone #48; purified antibody 48
With B4, in test [2], the equilibrium dissociation constant (Kd) turned out to be 1.73 nM.

B5: antibody 50 (antibody, V domains shown)
VH: QVQLQQSGAELVRPGASVKVSCKASGYAFSNYLIEWVKQRPGQGLEWIGVINPGSGFTKYNEKFKGKATLTADKSSSTAYMQLSSLTSEDSAVYFCARGLYRAMDYWGQGTSVTVSS
VL: DIQMTQSPASQSASLGESVTITCLASQTIGTWLAWYQQKPGKSPQLLIYAAASLADGVPSRFSGGGSGTKFSFKISSLQAEDFVNYYCQQIYSTPYTFGGGTKLEIK
notes: Mouse IgG, kappa light chain; also called clone #50; purified antibody 50
For the molecule B5, the “grade of loss of binding vs wild type” value in test [1] was 3 grade (3 => 95% loss of binding vs wild type). In addition, the Kd in test [2] amounted to 1.43 nM. Besides, the binding result in test [3] is “no binding (tested: 3 µg/ml)”.

B6: antibody 43 (antibody, V domains shown)
VH: QVALKESGPGILQPSQTLSLTCSFSGFSLSTFGMGVGWIRQSSGKGLEWLANIWWDDDKYYNPALKSRLTISKDASKNQAFLKIANVDTADTATYYCARIGNYGSNYWYFDVWGTGTTVTVSS
VL: QIVLTQSPAIMSASPGERVTMTCSANSRISYMYWYQQKPGSSPRLLIYDTSNLASGVPVRFSGSGSGTSYSLTISRMEAEDAATYNCQQWSSYPLTFGAGTKLELK
notes: Mouse IgG, kappa light chain; also called clone #43
As for B6, in test [1], the “grade of loss of binding vs wild type” value was 3 grade (3 => 95% loss of binding vs wild type). In test [2], the dissociation constant (Kd) came out at 4.55 nM. For the same molecule, the binding result in test [3] is “no binding (tested: 3 µg/ml)”.

B7: antibody 5 (antibody, V domains shown)
VH: QVTLKESGPGILQPSQTLSLTCSFSGFSLSTFGMGVGWIRQPSGKGLEWLAHIWWDDEKYYNSALKSRLTISKATSKNQAFLKIANVDTADTATYYCARISNYGSNYWYFNVWGTGTTVTVSS
VL: QVVLTQSPALMSASPGEKVTMTCSAGSSVSCMYWYQQKPGSSPRVLIYDTSNLASGVPARFTGSGSGTSYSLTISRMEAEDAASYYCQQWNSYPLTFGAGTKLELK
notes: Mouse IgG, kappa light chain; also called clone #5; purified antibody 5
Take B7: the “grade of loss of binding vs wild type” value in test [1] is 3 grade (3 => 95% loss of binding vs wild type). The dissociation constant (Kd) in test [2] is 3.35 nM. For the same molecule, the binding result in test [3] is “no binding (tested: 3 µg/ml)”.

B8: antibody 44 (antibody, V domains shown)
VH: QVTLKESGPGILQPSQTLSLTCSFSGFSLSTFGMGVGWIRQPSEKGLEWLAHIWWDDDKYYNPALKSRLTISKDTSKNQIFLKITNVDTAETATYYCSRIGNYGSNYWYFDVWGTGTTVTVSS
VL: QIVLTQSPAVMSASPGEKVTMTCTASSSVYYMYWYQQTPGSSPRLLIYDTSNLASGVPVRFSGSGSGTSYSLTISRMEAEDAATYYCQQWNTYPLTFGAGTKLELK
notes: Mouse IgG, kappa light chain; also called clone #44; m44
Turning to B8, the “grade of loss of binding vs wild type” value in test [1] is 3 grade (3 => 95% loss of binding vs wild type). In test [2], this molecule gave a Kd of 0.44 nM. Also, in test [3], the binding result is “no binding (tested: 3 µg/ml)”.

B9: antibody 42 (antibody, V domains shown)
VH: QVTLKESGPGILQPSQTLSLTCSLSGFSLSTFGRGVGWIRQPSGKGLEWLAHIWWDDEKYYNPALKSRLTISKDTSKNQVFLRIANVDTADTATYYCARIQNYGSNYWYFDVWGTGTTVTVSS
VL: LIVLTQSPAIMSASPGEKVTMTCGATSRISYMFWYQQKPGSSPRVLIYDTSNLASGVPVRFSGSGSGTSYSLTISRVEAEDVATYYCQQWNSYPLTFGAGTKLELK
notes: Mouse IgG, kappa light chain; also called clone #42; m42
Take B9: the “grade of loss of binding vs wild type” value in test [1] is 3 grade (3 => 95% loss of binding vs wild type). Further, the Kd in test [2] was 1.9 nM. In addition, the binding result in test [3] is listed as “no binding (tested: 3 µg/ml)”.

B10: antibody 22 (antibody, V domains shown)
VH: QVTLKESGPGILQPSQTLSLTCSFSGFSLSTFGMGVGWIRQPSGKGLEWLAHIWWDDEKYYNSALKSRLTISKATSKNQVFLKIANVDTADTATYYCARISNYGSNYWYFNVWGTGTTVTVSS
VL: QVVLTQSPALMSASPGEKVTMTCSAGSSVSYMYWYQQKPGSSPRVLIYDTSNLASGVPARFTGSGSGTSYSLTISRMEAEDAATYYCQQWNSYPLTFGAGTKLELK
notes: Mouse IgG, kappa light chain; also called clone #22; m22
For the molecule B10, the “grade of loss of binding vs wild type” value in test [1] was 3 grade (3 => 95% loss of binding vs wild type). The molecule further registered a dissociation constant (Kd) in test [2] of 2.04 nM. In test [3], the binding result is “no binding (tested: 3 µg/ml)”.
